Experimental data as given in paper PMC10720265.

Columns and labels:
Experiment in all cases: MYC IP followed by mass spectrometry (IP-MS)
Conditions in all cases: three biological replicates; HeLa cell lysates; signals normalized to bait protein levels; read off a plot
[1] = target: ARS2, endogenous in HeLa cells
[2] = target: NCBP1, CBC component, endogenous in HeLa cells (UniProt Q09161)
[3] = target: NCBP2, CBC component, endogenous in HeLa cells (UniProt P52298)
UniProt P52298, sequence (P52298 whole entry): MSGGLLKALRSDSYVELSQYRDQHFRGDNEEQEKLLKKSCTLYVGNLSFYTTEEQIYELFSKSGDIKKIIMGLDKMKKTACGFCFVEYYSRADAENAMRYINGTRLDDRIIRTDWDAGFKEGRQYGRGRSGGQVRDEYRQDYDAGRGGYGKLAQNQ

UniProt Q09161, sequence (Q09161 whole entry): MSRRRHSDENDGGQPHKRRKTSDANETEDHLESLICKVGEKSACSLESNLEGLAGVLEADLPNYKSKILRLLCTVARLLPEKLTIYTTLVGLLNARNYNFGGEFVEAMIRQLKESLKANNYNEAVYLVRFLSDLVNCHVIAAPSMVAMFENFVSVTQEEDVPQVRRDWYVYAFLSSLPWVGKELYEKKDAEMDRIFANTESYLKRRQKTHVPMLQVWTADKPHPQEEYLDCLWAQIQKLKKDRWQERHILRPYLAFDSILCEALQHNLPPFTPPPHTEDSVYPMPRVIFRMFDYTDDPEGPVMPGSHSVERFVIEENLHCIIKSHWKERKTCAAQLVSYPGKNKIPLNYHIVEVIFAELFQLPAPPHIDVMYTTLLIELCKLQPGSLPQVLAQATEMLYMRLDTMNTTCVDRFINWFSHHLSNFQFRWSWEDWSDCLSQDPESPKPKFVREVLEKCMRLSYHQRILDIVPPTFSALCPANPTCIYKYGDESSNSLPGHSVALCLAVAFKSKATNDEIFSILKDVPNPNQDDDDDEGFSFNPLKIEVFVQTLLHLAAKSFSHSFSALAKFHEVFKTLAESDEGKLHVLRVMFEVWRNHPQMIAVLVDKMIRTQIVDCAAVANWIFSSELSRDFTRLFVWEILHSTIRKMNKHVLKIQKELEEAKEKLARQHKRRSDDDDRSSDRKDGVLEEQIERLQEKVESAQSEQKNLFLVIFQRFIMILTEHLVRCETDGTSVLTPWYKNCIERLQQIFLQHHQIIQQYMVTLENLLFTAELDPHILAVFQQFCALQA

other: log2 fold change (Z1 1-209(WT)/Z1 1-209(MUT)) [1]: 6.9 log2
other: log2 fold change (Z1 1-209(WT)/Z1 1-209(MUT)) [2]: 2.1 log2
other: log2 fold change (Z1 1-209(WT)/Z1 1-209(MUT)) [3]: 1.8 log2
Substance: Z1^1-209(WT), MYC-tagged N-terminal fragment of human ZFC3H1 (from UniProt O60293) … -> … (E->A; E->A; D->A; E->A; residue numbers not printed)
